Experimental data published in the supplement of paper PMC10724198.
± gives the standard deviation of the averaged measurements.

Tested on: Saccharomyces cerevisiae
Assay: protein stability index of tFT-peptide fusion (C-terminal peptide) (PSI (0-1 scale)); higher = more stable (slower turnover)
Settings: genetic background: wild type; temperature: 30 C
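Further: PSI is a weighted mean of sequencing reads over stability bins, variants kept only with over 10 reads, mCherry proximal and sfGFP distal, peptide attached via GGGS linker.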

Sequence | protein stability index
PPIPNPPPHPLP | 0.657 ± 0.057
PPLCRSFPPASL | 0.791 ± 0.061
PPLFTAAPRRWS | 0.752 ± 0.093
PPLLDASPAPIL | 0.689 ± 0.024
PPLLLTSLMLLP | 0.655 ± 0.034
PPLLPPVSPPPP | 0.684 ± 0.061
PPLLQPPPPRLL | 0.736 ± 0.048
PPLPATHLPPPP | 0.802 ± 0.058
PPLPLLPPLPPP | 0.644 ± 0.034
PPLPLPSPPTPH | 0.654 ± 0.021
PPLPLTSPPPSP | 0.631 ± 0.024
PPLPPAPTPALP | 0.684 ± 0.029
PPLPPPFSPLPP | 0.686 ± 0.025
PPLPPPLLPFSI | 0.747 ± 0.019
PPLPPPPPAPAP | 0.634 ± 0.016
PPLPPPPRSPPS | 0.7565 ± 0.0021
PPLPPPSPESVS | 0.709 ± 0.056
PPLPPSPPRSPP | 0.552 ± 0.029
PPLPSPPAPPAP | 0.655 ± 0.0086
PPLPSPPQPYSA | 0.639 ± 0.013
PPLPSSLPPISF | 0.703 ± 0.015

Sequence | protein stability index
PPLRPFLLPPPS | 0.722 ± 0.077
PPLRPHHPLYHS | 0.687 ± 0.011
PPLSLLPSSSPH | 0.664 ± 0.0081
PPLSPTLTIPPP | 0.698 ± 0.079
PPLSSSALPARS | 0.692 ± 0.011
PPLTPPTPVPPG | 0.6937 ± 0.0056
PPLTVRPFPFRV | 0.662 ± 0.015
PPLVSPPPPLPP | 0.62 ± 0.015
PPNPFPALRSSP | 0.7324 ± 0.0011
PPPAPPGPRYRR | 0.696 ± 0.025
PPPAPPHPPLRH | 0.682 ± 0.027
PPPAPPLILVLP | 0.539 ± 0.0037
PPPAPPLSPPPH | 0.653 ± 0.038
PPPAPPPHRDLS | 0.709 ± 0.057
PPPAPPPPLRLL | 0.721 ± 0.046
PPPARPAPLSPP | 0.692 ± 0.08
PPPASSPPPSAS | 0.626 ± 0.062
PPPCPHLAPRLP | 0.714 ± 0.071
PPPCPHRDGTSP | 0.664 ± 0.05
PPPCRSLPLLPP | 0.6546 ± 0.005
PPPDTPSPPSSL | 0.668 ± 0.026

Sequence | protein stability index
PPPFRPPPRLYS | 0.693 ± 0.025
PPPFRTPPSRRP | 0.739 ± 0.057
PPPGPSPLAAPP | 0.654 ± 0.056
PPPGRPDAMTPP | 0.676 ± 0.022
PPPGSPLPPPRA | 0.702 ± 0.036
PPPILFTEPPLA | 0.738 ± 0.0049
PPPIPLSPPLVL | 0.72 ± 0.014
PPPIPPFRLSRS | 0.69 ± 0.061
PPPLLPPTPLPP | 0.619 ± 0.0069
PPPLPLPPPPPP | 0.58 ± 0.048
PPPLPPPAPPPR | 0.663 ± 0.014
PPPLPPPLPLCS | 0.675 ± 0.023
PPPLPPPYPPPP | 0.627 ± 0.016
PPPLPSPPRPPS | 0.734 ± 0.045
PPPLPTRPPPSA | 0.649 ± 0.0082
PPPLRTHTGPPP | 0.678 ± 0.0069
PPPLSPPLPFFV | 0.666 ± 0.036
PPPLSSPPPRPL | 0.709 ± 0.058
PPPLTPPPPPPR | 0.725 ± 0.014
PPPNPHAASTHH | 0.654 ± 0.0077
PPPPAFPPPLSP | 0.716 ± 0.067

Sequence | protein stability index
PPPPAHPPPRSP | 0.741 ± 0.035
PPPPANVSHHAP | 0.593 ± 0.073
PPPPAPPPPVPS | 0.69246 ± 0.00027
PPPPAPSPPPSP | 0.717 ± 0.0094
PPPPASARPSLP | 0.477 ± 0.069
PPPPFLLPPLLD | 0.707 ± 0.012
PPPPHFLVPLSP | 0.695 ± 0.021
PPPPLDSFPFIT | 0.701 ± 0.043
PPPPLLPPPSPL | 0.7 ± 0.032
PPPPLLPTPRPF | 0.682 ± 0.039
PPPPLPPPPSPA | 0.7911 ± 0.0045
PPPPLPPPSHYP | 0.728 ± 0.033
PPPPLPRAPFSP | 0.661 ± 0.0092
PPPPLPSPAPRP | 0.735 ± 0.032
PPPPLSPPPEPR | 0.659 ± 0.014
PPPPNPPRPSSR | 0.758 ± 0.026
PPPPPALPSPPP | 0.631 ± 0.025
PPPPPAPPPTPL | 0.556 ± 0.011
